Laboratory results as given in the supplement of paper PMC9112550, “Optimization of the antimicrobial peptide Bac7 by deep mutational scanning” (BMC Biology, 2022).

Each sequence was assayed on Escherichia coli TOP10 (assay: shrunken log2 fold change of peptide-encoding DNA abundance (4.5 h post-induction vs induction); higher = less antimicrobial activity (less host growth inhibition)). Conditions: time post-induction: 4.5 h; library: site-saturation at positions 5, 18, 19, 20.
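Further: peptides expressed intracellularly from a pBAD plasmid library in pooled LB shake-flask culture, induced with 0.3% L-arabinose, DNA abundance read by NGS, three biological replicates, DESeq2 with apeglm shrinkage.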

Sequence	shrunken log2 fold change
RRIRARPPRLPRPRPRPVFGPRP	0.353
RRIRPRPPRLPRPRPRPYFKPRP	-0.796
RRIRMRPPRLPRPRPRPDKLPRP	0.282
RRIRHRPPRLPRPRPRPCTAPRP	0.0655
RRIRYRPPRLPRPRPRPLYPPRP	-0.929
RRIRHRPPRLPRPRPRPKSEPRP	-0.00614
RRIRLRPPRLPRPRPRPKFWPRP	0.0752
RRIRKRPPRLPRPRPRPLAYPRP	0.259
RRIRTRPPRLPRPRPRPTFDPRP	-0.0153
RRIRSRPPRLPRPRPRPAIPPRP	-0.139
RRIRRRPPRLPRPRPRPFANPRP	0.00652
RRIRIRPPRLPRPRPRPMGYPRP	-0.148
RRIRCRPPRLPRPRPRPDVEPRP	-0.421
RRIRPRPPRLPRPRPRPVDDPRP	0.103
RRIRGRPPRLPRPRPRPQYTPRP	-0.0367
RRIRVRPPRLPRPRPRPSDYPRP	-0.673
RRIRVRPPRLPRPRPRPDSVPRP	-0.28
RRIRVRPPRLPRPRPRPVCVPRP	-0.0658
RRIRQRPPRLPRPRPRPTKPPRP	0.0859
RRIRHRPPRLPRPRPRPPYSPRP	-0.418
RRIRFRPPRLPRPRPRPFRWPRP	0.178
RRIRIRPPRLPRPRPRPCYCPRP	-0.0457

Sequence	shrunken log2 fold change
RRIRGRPPRLPRPRPRPMTFPRP	0.536
RRIRYRPPRLPRPRPRPFAEPRP	-0.509
RRIRSRPPRLPRPRPRPFQIPRP	0.0213
RRIRPRPPRLPRPRPRPRKPPRP	-0.0217
RRIRWRPPRLPRPRPRPYGMPRP	-0.4
RRIRYRPPRLPRPRPRPMIFPRP	-1.43
RRIRTRPPRLPRPRPRPRFNPRP	-0.286
RRIRYRPPRLPRPRPRPTPYPRP	-0.847
RRIRTRPPRLPRPRPRPFVIPRP	-0.488
RRIRSRPPRLPRPRPRPGSYPRP	-0.0952
RRIRLRPPRLPRPRPRPREVPRP	0.59
RRIRLRPPRLPRPRPRPPVTPRP	0.353
RRIRKRPPRLPRPRPRPIYYPRP	-0.37
RRIRVRPPRLPRPRPRPWLTPRP	-0.147
RRIRPRPPRLPRPRPRPPWIPRP	-0.0483
RRIRQRPPRLPRPRPRPMCSPRP	-0.000965
RRIRKRPPRLPRPRPRPNFCPRP	-0.0549
RRIRYRPPRLPRPRPRPIEKPRP	-0.203
RRIRTRPPRLPRPRPRPHLMPRP	-0.139
RRIRRRPPRLPRPRPRPHPDPRP	0.474
RRIRCRPPRLPRPRPRPDPYPRP	-0.197
RRIRLRPPRLPRPRPRPPEQPRP	-0.0138

Sequence	shrunken log2 fold change
RRIRDRPPRLPRPRPRPRLQPRP	0.0983
RRIRHRPPRLPRPRPRPLVVPRP	-0.0489
RRIRFRPPRLPRPRPRPPIVPRP	-0.126
RRIRLRPPRLPRPRPRPYHVPRP	-1.29
RRIRVRPPRLPRPRPRPDRTPRP	-0.252
RRIRTRPPRLPRPRPRPHCIPRP	-0.489
RRIRTRPPRLPRPRPRPYYLPRP	-1.28
RRIRYRPPRLPRPRPRPMHRPRP	-0.0541
RRIRVRPPRLPRPRPRPIQPPRP	0.0215
RRIRPRPPRLPRPRPRPAIGPRP	-0.0136
RRIRARPPRLPRPRPRPASYPRP	0.187
RRIRGRPPRLPRPRPRPGTRPRP	0.703
RRIRRRPPRLPRPRPRPTARPRP	0.494
RRIRMRPPRLPRPRPRPFTMPRP	-0.55
RRIRSRPPRLPRPRPRPEWRPRP	0.478
RRIRERPPRLPRPRPRPWITPRP	-0.00674
RRIRSRPPRLPRPRPRPFQTPRP	-0.266
RRIRYRPPRLPRPRPRPYTIPRP	-0.0225
RRIRRRPPRLPRPRPRPRGWPRP	0.979
RRIRWRPPRLPRPRPRPAENPRP	0.568
RRIRRRPPRLPRPRPRPPDPPRP	0.707
RRIRIRPPRLPRPRPRPEATPRP	0.511

Sequence	shrunken log2 fold change
RRIRMRPPRLPRPRPRPNAFPRP	0.344
RRIRRRPPRLPRPRPRPVGQPRP	0.0153
RRIRRRPPRLPRPRPRPCVRPRP	0.11
RRIRGRPPRLPRPRPRPSFSPRP	0.154
RRIRVRPPRLPRPRPRPKGQPRP	0.147
RRIRTRPPRLPRPRPRPFKLPRP	-0.0476
RRIRCRPPRLPRPRPRPMYNPRP	-0.535
RRIRGRPPRLPRPRPRPDGEPRP	0.259
RRIRERPPRLPRPRPRPELNPRP	-0.119
RRIRFRPPRLPRPRPRPPLRPRP	0.373
RRIRCRPPRLPRPRPRPQGYPRP	-0.0448
RRIRLRPPRLPRPRPRPRGWPRP	0.722
RRIRERPPRLPRPRPRPWRNPRP	0.0891
RRIRRRPPRLPRPRPRPGAWPRP	-9.3e-05
RRIRCRPPRLPRPRPRPPKMPRP	0.222
RRIRCRPPRLPRPRPRPKIPPRP	-0.284
RRIRNRPPRLPRPRPRPRKDPRP	0.00266
RRIRSRPPRLPRPRPRPQRFPRP	-0.152
RRIRNRPPRLPRPRPRPTPGPRP	0.312
RRIRMRPPRLPRPRPRPEYGPRP	0.132
RRIRQRPPRLPRPRPRPSLMPRP	-0.112
RRIRARPPRLPRPRPRPTWCPRP	0.325

Sequence	shrunken log2 fold change
RRIRLRPPRLPRPRPRPMRWPRP	0.278
RRIRGRPPRLPRPRPRPHTLPRP	-0.22
RRIRPRPPRLPRPRPRPMFVPRP	-0.254
RRIRQRPPRLPRPRPRPIEIPRP	-0.0062
RRIRDRPPRLPRPRPRPMPTPRP	-0.0113
RRIRTRPPRLPRPRPRPVHLPRP	-0.123
RRIRFRPPRLPRPRPRPMFEPRP	-0.0233
RRIRHRPPRLPRPRPRPWVWPRP	0.296
RRIRHRPPRLPRPRPRPQFAPRP	0.0852
RRIRLRPPRLPRPRPRPKMRPRP	0.608
RRIRLRPPRLPRPRPRPNHAPRP	-0.0276
RRIRIRPPRLPRPRPRPIIDPRP	-0.372
RRIRHRPPRLPRPRPRPRQGPRP	0.093
RRIRRRPPRLPRPRPRPGCAPRP	0.73
RRIRPRPPRLPRPRPRPCWPPRP	0.144
RRIRIRPPRLPRPRPRPQWEPRP	-0.0938
RRIRNRPPRLPRPRPRPQRWPRP	0.176
RRIRTRPPRLPRPRPRPHVAPRP	0.268
RRIRTRPPRLPRPRPRPVKEPRP	-0.0988
RRIRGRPPRLPRPRPRPRPLPRP	0.902
RRIRVRPPRLPRPRPRPSIQPRP	-0.321
